Where no end group is shown, it is not given here. [ ]: non-standard residue; d: D form. The star is where a group is joined. βGlc = OC[C@H]1O[C@@H](*)[C@H](O)[C@@H](O)[C@@H]1O; Nle = CCCC[C@H](N)C(=O)O
T1: VPAC2
T1 sequence (P41587 whole entry, species assumed, looked up): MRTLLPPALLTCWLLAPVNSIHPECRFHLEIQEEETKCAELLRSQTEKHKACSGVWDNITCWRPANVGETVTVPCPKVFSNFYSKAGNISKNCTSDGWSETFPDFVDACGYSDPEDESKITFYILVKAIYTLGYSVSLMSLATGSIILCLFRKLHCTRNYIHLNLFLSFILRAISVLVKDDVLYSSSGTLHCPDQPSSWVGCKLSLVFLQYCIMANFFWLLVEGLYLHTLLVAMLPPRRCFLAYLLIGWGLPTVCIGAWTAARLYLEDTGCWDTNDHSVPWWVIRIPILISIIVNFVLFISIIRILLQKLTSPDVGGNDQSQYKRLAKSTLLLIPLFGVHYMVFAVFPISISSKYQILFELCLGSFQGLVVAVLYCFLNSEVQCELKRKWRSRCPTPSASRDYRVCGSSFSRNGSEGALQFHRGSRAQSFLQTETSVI

T2: VPAC1
T2 sequence (P32241 whole entry, species assumed, looked up): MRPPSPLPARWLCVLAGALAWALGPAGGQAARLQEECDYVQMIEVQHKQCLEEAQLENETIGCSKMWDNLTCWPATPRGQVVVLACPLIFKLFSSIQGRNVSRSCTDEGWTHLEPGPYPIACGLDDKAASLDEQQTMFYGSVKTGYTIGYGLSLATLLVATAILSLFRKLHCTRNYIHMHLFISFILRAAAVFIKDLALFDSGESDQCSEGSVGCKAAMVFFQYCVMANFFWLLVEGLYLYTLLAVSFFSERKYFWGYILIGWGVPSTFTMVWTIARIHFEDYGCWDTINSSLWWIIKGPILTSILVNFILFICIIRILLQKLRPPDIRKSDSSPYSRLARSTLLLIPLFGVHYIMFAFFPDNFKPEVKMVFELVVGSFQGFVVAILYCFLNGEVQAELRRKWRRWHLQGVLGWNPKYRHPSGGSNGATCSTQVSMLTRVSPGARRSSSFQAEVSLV


Legend:
VPAC2 = target: T1, VPAC2; assay: cell-based or functional assay
VPAC1 = target: T2, VPAC1; assay: cell-based or functional assay

Binder	EC50 (agonist) (VPAC2)	EMax (agonist) (VPAC2)	EC50 (agonist) (VPAC1)	EMax (agonist) (VPAC1)
HSDGIFTDSYSRYRKQLAVKKYLAAVLS(melibiose)-NH2 [HSDGIFTDSYSRYRKQLAVKKYLAAVL-Ser(Mel)]	9.4 nM	86%	0.55 nM	102%
HSDGIFTDSYSRYRKQXAVKKYLAAVLS (D-Serine at 2 (s); L-Nor-Leucine at 17 (Ñ, written X in letters); Ser 28 = L-Ser(β-D-Glc)) [HsDGIFTDSYSRYRKQÑAVKKYLAAVL-Ser(Glc)]	241 nM	104%	1.3 nM	90%
HSDGIFTDSYSRYRKQXAVKKYLAAVS (D-Serine at 2 (s); L-Nor-Leucine at 17 (Ñ, written X in letters); Ser 27 = L-Ser(β-D-Glc)) [HsDGIFTDSYSRYRKQÑAVKKYLAAV-Ser(Glc)]	654 nM	107%	4.8 nM	90%
H[dS]DGIFTDSYSRYRKQ[Nle]AVKKYLAALS(βGlc)L-NH2 (ends and bridges not checked) [HsDGIFTDSYSRYRKQÑAVKKYLAAL-Ser(Glc)-L]	> 2500 nM	-95%	5.9 nM	93%
HSDGIFADSYSRYRKQXAVKKYLAAVLS (D-Serine at 2 (s); L-Nor-Leucine at 17 (Ñ, written X in letters); Ser 28 = L-Ser(β-D-Glc)) [HsDGIFADSYSRYRKQÑAVKKYLAAVL-Ser(Glc)]	> 2500 nM	-42%	78.8 nM	93%
HSDGIFADSYSRYRKQXAVKKYLAAVS (D-Serine at 2 (s); L-Nor-Leucine at 17 (Ñ, written X in letters); Ser 27 = L-Ser(β-D-Glc)) [HsDGIFADSYSRYRKQÑAVKKYLAAV-Ser(Glc)]	–	–	1370 nM	85%
H[dS]DGIFADSYSRYRKQ[Nle]AVKKYLAAVS(βGlc)L-NH2 (ends and bridges not checked) [HsDGIFADSYSRYRKQÑAVKKYLAAV-Ser(Glc)-L]	–	–	1620 nM	78%
HSDGIFTDSYSRYRKQMAVKKYLAAVL (ends and bridges not checked) [PACAP1-27]	–	–	–	100%

Reference: US20240294595A1 (ARIZONA BOARD OF REGENTS ON BEHALF OF THE UNIVERSITY OF …, published 2024)
